Reference: patent US20140287434

Experiments:
[1] = system: Btk SH3-SH2 (Btk 32)
[2] = system: Btk SH3
[3] = system: Lck peptide substrate (YIYGSFK) attached to the carboxy-terminus of the Itk SH2 domain

Chain of FLAG-tagged Btk full-length enzyme (Q06187 whole entry): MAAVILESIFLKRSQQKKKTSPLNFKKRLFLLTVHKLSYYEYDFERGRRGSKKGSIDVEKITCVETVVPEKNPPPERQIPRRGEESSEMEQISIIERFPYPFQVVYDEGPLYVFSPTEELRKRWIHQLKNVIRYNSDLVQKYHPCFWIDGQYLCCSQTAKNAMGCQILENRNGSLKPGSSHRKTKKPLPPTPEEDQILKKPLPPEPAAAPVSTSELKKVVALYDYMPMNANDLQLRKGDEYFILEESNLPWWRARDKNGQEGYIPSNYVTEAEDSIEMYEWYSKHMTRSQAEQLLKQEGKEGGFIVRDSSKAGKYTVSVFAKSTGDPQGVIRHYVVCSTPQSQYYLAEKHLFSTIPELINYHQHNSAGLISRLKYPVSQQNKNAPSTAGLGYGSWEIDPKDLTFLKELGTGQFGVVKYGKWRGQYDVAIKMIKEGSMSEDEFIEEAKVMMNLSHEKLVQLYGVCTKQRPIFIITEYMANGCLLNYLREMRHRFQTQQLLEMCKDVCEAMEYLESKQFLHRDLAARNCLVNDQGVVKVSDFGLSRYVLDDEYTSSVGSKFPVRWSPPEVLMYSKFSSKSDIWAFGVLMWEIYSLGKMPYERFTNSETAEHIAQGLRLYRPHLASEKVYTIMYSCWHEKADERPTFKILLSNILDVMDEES

Row | Substance | phosphorylation on Y223 in an in vitro kinase assay [1] | phosphorylation on Y223 in an in vitro kinase assay [2] | phosphorylation by Lck kinase domain (32P, scintillation counting) against the free peptide YIYGSFK [3]
1 | FLAG-tagged Btk full-length enzyme | only substrates that contain both the site of phosphorylation (Y180 for Itk, Y187 for Tec, Y223 for Btk, and Y783 for PLCγ1) and the adjacent SH2 domain are phosphorylated by the Tec kinases | are not phosphorylated by the Tec and Btk kinases | –
2 | His-tagged wild type Lck kinase domain | – | – | most efficiently phosphorylated when attached to the carboxy-terminus of the SH2 domain and this tethered substrate is a better substrate by an order of magnitude
